Reference: patent US20120189541A1 (AbbVie / Abbott, published 2012)

What was measured:
[1] = biological target: T1, Cynomolgus IL-1α (cynomolgus, UniProt P79340 113-271, limits assumed); assay: cell-based or functional assay
T1 sequence (looked up): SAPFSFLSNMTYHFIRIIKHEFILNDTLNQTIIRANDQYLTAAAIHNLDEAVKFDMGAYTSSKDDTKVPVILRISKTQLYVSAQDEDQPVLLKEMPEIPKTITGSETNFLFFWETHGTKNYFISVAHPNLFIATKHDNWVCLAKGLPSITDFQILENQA

[2] = biological target: T2, Recombinant Human IL-1α (human, UniProt P01583 113-271); assay: cell-based or functional assay
T2 sequence (looked up): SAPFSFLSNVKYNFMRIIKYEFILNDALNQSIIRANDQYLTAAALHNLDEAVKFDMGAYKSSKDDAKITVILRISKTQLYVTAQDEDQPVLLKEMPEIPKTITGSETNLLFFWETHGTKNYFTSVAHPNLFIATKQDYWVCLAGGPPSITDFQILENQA

[3] = biological target: T1, Cynomolgus IL-1α; assay: SPR (BIACORE), cynomolgus antigen
[4] = biological target: T2, Recombinant Human IL-1α; assay: SPR (BIACORE), human antigen
Procedure: (§1) The BIACORE assay (Biacore, Inc, Piscataway, N.J.) determines the affinity of antibodies or DVD-Ig molecule with kinetic measurements of on-rate and off-rate constants. Binding of antibodies or DVD-Ig molecule to a target antigen (for example, a purified recombinant target antigen) is determined by surface plasmon resonance-based measurements with a Biacore® 1000 or 3000 instrument (Biacore® AB, Uppsala, Sweden) using running HBS-EP (10 mM HEPES [pH 7.4], 150 mM NaCl, 3 mM EDTA, and 0.005% surfactant P20) at 25° C. All chemicals are obtained from Biacore® AB (Uppsala, Sweden) or otherwise from a different source as described in the text. For example, approximately 5000 RU of goat anti-mouse IgG, (Fcγ), fragment specific polyclonal antibody (Pierce Biotechnology Inc, Rockford, Ill.) diluted in 10 mM sodium acetate (pH 4.5) is directly immobilized across a CM5 research grade biosensor chip using a standard amine coupling kit according to manufacturer's instructions and procedures at 25 μg/ml. Unreacted moieties on the biosensor surface are blocked with ethanolamine. Modified carboxymethyl dextran surface in flowcell 2 and 4 is used as a reaction surface. Unmodified carboxymethyl dextran without goat anti-mouse IgG in flow cell 1 and 3 is used as the reference surface. For kinetic analysis, rate equations derived from the 1:1 Langmuir binding model are fitted simultaneously to association and dissociation phases of all eight injections (using global fit analysis) with the use of Biaevaluation 4.0.1 software. Purified antibodies or DVD-Ig molecule are diluted in HEPES-buffered saline for capture across goat anti-mouse IgG specific reaction surfaces. Antibodies or DVD-Ig molecule to be captured as a ligand (25 μg/ml) are injected over reaction matrices at a flow rate of 5 μl/min. The association and dissociation rate constants, kₒₙ (M⁻¹s⁻¹) and koff (s⁻¹) are determined under a continuous flow rate of 25 μl/minute. Rate constants are derived by making kinetic binding measurements at different antigen concentrations ranging from 10-200 nM. The equilibrium dissociation constant (M) of the reaction between antibodies or DVD-Ig molecules and the target antigen is then calculated from the kinetic rate constants by the following formula: KD=koff/kₒₙ. Binding is recorded as a function of time and kinetic rate constants are calculated.

[5] = biological target: T2, Recombinant Human IL-1α; assay: capture ELISA: antibody captured by anti-human Fc, biotinylated antigen titrated
Procedure: (§2) Plates were washed five times in washing buffer (PBS containing 0.05% Tween 20) and blocked for 1 hour at 25° C. with 200 μl per well superblock blocking buffer (Thermo scientific, #37515). Blocking buffer was removed, and 2 μg/ml of each antibody or DVD-Ig molecule in PBS containing 10% superblock, 0.5% Tween-20 was added to the wells at 100 μl per well and incubated at 25° C. for 1 hour. The wells were washed five times in 1×PBST, and 1 μg/ml biotinylated antigen was titrated at 1:6 serial dilutions (for a range of μg to pg in PBS containing 10% superblock, 0.05% tween 20). Each dilution of antigen was then added to the plates and incubated for 1 hour at 25° C. The wells were washed five times in 1×PBST and incubated for 1 hour at 25° C. with polyHRP streptavidin (KPL #474-3000, Gaithersburg, Md.). The wells were washed five times in 1×PBST, and 100 μl of ULTRA-TMB ELISA (Pierce, Rockford, Ill.) were added per well. Following color development the reaction was stopped with 1N HCL and absorbance at 450 nm is measured.

[6] = biological target: T3, Recombinant Human IL-1β (human, UniProt P01584 117-269); assay: cell-based or functional assay
[7] = biological target: T4, Cynomolgus IL-1β (cynomolgus, UniProt P79182 117-268, limits assumed); assay: cell-based or functional assay
T4 sequence (looked up): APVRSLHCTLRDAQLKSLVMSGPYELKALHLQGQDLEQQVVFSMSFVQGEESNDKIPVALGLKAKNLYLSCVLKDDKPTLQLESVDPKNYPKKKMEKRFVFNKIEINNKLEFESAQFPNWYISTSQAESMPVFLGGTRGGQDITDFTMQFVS

[8] = biological target: T3, Recombinant Human IL-1β; assay: SPR (BIACORE), human antigen
Procedure: as §1

[9] = biological target: T3, Recombinant Human IL-1β; assay: capture ELISA: antibody captured by anti-human Fc, biotinylated antigen titrated
Procedure: as §2

Row | Binder | Cyno IL-1α Neutralization Assay EC50 (IL-1 induced hIL-8, MRC-5 cells) [1] [nM] | Human IL-1α Neutralization Assay EC50 (IL-1 induced hIL-8, MRC-5 cells) [2] [nM] | Kd [3] [nM] | koff [3] [s⁻¹] | kon [3] [M⁻¹ s⁻¹] | Kd [4] [nM] | koff [4] [s⁻¹] | kon [4] [M⁻¹ s⁻¹] | EC50 [5] [nM] | Human IL-1β Neutralization Assay EC50 (IL-1 induced hIL-8, MRC-5 cells) [6] [nM] | Cyno IL-1β Neutralization Assay EC50 (IL-1 induced hIL-8, MRC-5 cells) [7] [nM] | Kd [8] [nM] | koff [8] [s⁻¹] | kon [8] [M⁻¹ s⁻¹] | EC50 [9] [nM]
1 | 3D12.10/15 (antibody, human IgG1, kappa, L234A L235A, V domains shown, Parent anti-IL-1α antibody; also called 3D12 10/15VH; 3D12 10/15VL) VH: EVQLVQSGAEVKKPGVSVKVSCKASGYTFTTYGMHWVRQAPGQGLEWMGWINTYTGESTYADDFQGRVTFTLDTSTSTAYMELSSLRSEDTAVYFCARGIYYYGSSYAMNYWGQGTTVTVSS VL: DIQMTQSPSSLSASVGDRVTITCRASQDISNMLNWYQQKPGKTPKLLIYYTSRLYPGVPSRFSGSGSGTDYTFTISSLQPEDIATYFCQQGKTLPYAFGQGTKLEIKR | 0.0126 | 0.0057 | 0.0578 | 2.25e-05 | 389000 | 0.115 | 4.1e-05 | 355000 | 0.007 |  |  |  |  |  | 
2 | E26.13-SS-3D12.10/15 (bispecific antibody, human IgG1, kappa, L234A L235A, DVD-Ig, outer (N-terminal) domain anti-IL-1β, inner domain anti-IL-1α, short linkers) heavy: not shown light: DIQMTQSPSSLSASVGDRVTITCRASGNIHNYLTWYQQTPGKAPKLLIYNAKTLADGVPSRFSGSGSGTDYTFTISSLQPEDIATYYCQHFWSIPYTFGQGTKLQITRTVAAPDIQMTQSPSSLSASVGDRVTITCRASQDISNMLNWYQQKPGKTPKLLIYYTSRLYPGVPSRFSGSGSGTDYTFTISSLQPEDIATYFCQQGKTLPYAFGQGTKLEIKRTVAAPSVFIFPPSDEQLKSGTASVVCLLNNFYPREAKVQWKVDNALQSGNSQESVTEQDSKDSTYSLSSTLTLSKADYEKHKVYACEVTHQGLSSPVTKSFNRGEC | 0.0626 | 0.0538 |  |  |  | 0.569 | 3.25e-05 | 56900 |  | 0.0099 | 0.0056 | 0.0161 | 2.65e-05 | 1.66e+06 | 
3 | E26.35-SS-3D12.10/15 (bispecific antibody, human IgG1, kappa, L234A L235A, DVD-Ig, outer domain anti-IL-1β, inner domain anti-IL-1α, short linkers) heavy: not shown light: DIQMTQSPSSLSASVGDRVTITCRASGNIHNYLTWYQQTPGKAPKLLIYNAKTLADGVPSRFSGSGSGTDYTFTISSLQPEDIATYYCQHFWSIPYTFGQGTKLQITRTVAAPDIQMTQSPSSLSASVGDRVTITCRASQDISNMLNWYQQKPGKTPKLLIYYTSRLYPGVPSRFSGSGSGTDYTFTISSLQPEDIATYFCQQGKTLPYAFGQGTKLEIKRTVAAPSVFIFPPSDEQLKSGTASVVCLLNNFYPREAKVQWKVDNALQSGNSQESVTEQDSKDSTYSLSSTLTLSKADYEKHKVYACEVTHQGLSSPVTKSFNRGEC | 0.081 | 0.0479 |  |  |  | 0.403 | 2.34e-05 | 58100 |  | 0.002 | 0.0121 | 0.00611 | 7.85e-06 | 1.28e+06 | 
4 | 3D12r16 (antibody, human IgG1, kappa, L234A L235A, V domains shown, Parent anti-IL-1α antibody; also called 3D12r16VH; 3D12r16VL) VH: EVQLVQSGAEVKKPGASVKVSCKASGYTFKYYGMNWVRQAPGQGLERMGWINTYTGQSTYADDFKGRVTFTLDTSTSTAYMELSSLRSEDTAVYYCARDIYYYGSDFAMDYWGQGTTVTVSS VL: DIQMTQSPSSLSASVGDRVTITCRASQDISNMLNWYQQKPGKAPKLLIYYTSRLKPGVPSRFSGSGSGTDYTFTISSLQPEDIATYFCQQGKTAPYTFGQGTKLEIKR | 0.0008 | 0.00056 |  |  |  | 0.031 | 2.77e-05 | 900000 | 0.072 |  |  |  |  |  | 
5 | 1B12.1 (antibody, human IgG1, kappa, L234A L235A, V domains shown, Parent anti-IL-1β antibody; also called 1B12.1VH; 1B12.1VL) VH: EVQLQESGPGLVKPSETLSLTCTVSGFSLSDYGVSWIRQPPGKGLEWLGLIWGGGDTYYNSPLKSRLTISKDNSKSQVSLKLSSVTAADTAVYYCAKQRTLWGYDLYGMDYWGQGTLVTVSS VL: DTQVTQSPSSLSASVGDRVTITCITSTDIDVDMNWYQQKPGKPPKLLISQGNTLRPGVPSRFSSSGSGTDFTFTISSLQPEDFATYYCLQSDNLPLTFGQGTKLEIKR |  |  |  |  |  |  |  |  |  | 0.15 |  | 0.186 | 0.00103 | 5.55e+06 | 0.0399
6 | 1B12.3 (antibody, human IgG1, kappa, L234A L235A, V domains shown, Parent anti-IL-1β antibody; also called 1B12.3VH; 1B12.3VL) VH: EVQLQESGPGLVKPSETLSLTCTVSGFSLSDYGVSWIRQPPGKGLEWLGLIWGGGDTYYNSPLKSRLTISKDNSKSQVSLKLSSVTAADTAVYYCAKQRTLWGYDLYGMDYWGQGTLVTVSS VL: DTVVTQSPAFLSVTPGEKVTITCITSTDIDVDMNWYQQKPDQPPKLLISQGNTLRPGVPSRFSSSGSGTDFTFTISSLEAEDAATYYCLQSDNLPLTFGQGTKLEIKR |  |  |  |  |  |  |  |  |  | 0.3 |  | 0.206 | 0.00118 | 5.73e+06 | 0.0438
7 | 1B12.6 (antibody, human IgG1, kappa, L234A L235A, V domains shown, Parent anti-IL-1β antibody; also called 1B12.6VH; 1B12.6VL) VH: EVQLVESGGGLVQPGGSLRLSCAVSGFTLSDYGVSWIRQAPGKGLEWLGLIWGGGDTYYNSPLKSRLTISKDNSKSTVYLQMNSLRAEDTAVYYCAKQRTLWGYDLYGMDYWGQGTLVTVSS VL: ETTVTQSPSSLSASVGDRVTITCITSTDIDVDMNWYQQKPGKPPKLLISQGNTLRPGVPSRFSSSGSGTDFTFTISSLQPEDFATYYCLQSDNLPLTFGQGTKLEIKR |  |  |  |  |  |  |  |  |  | 0.38 |  | 0.202 | 0.00125 | 6.2e+06 | 0.0459
8 | 3D12.8 (antibody, human IgG1, kappa, L234A L235A, V domains shown, Parent anti-IL-1α antibody; also called 3D12.8VH; 3D12.8VL) VH: EIQLVQSGSELKKPGASVKVSCKASGYTFTNYGMNWVRQAPGQDLERMAWINTYTGESTYADDFKGRFVFSLDTSVSTAYLQISSLKAEDTAVYFCARGIYYYGSSYAMDYWGQGTTVTVSS VL: DIQMTQSPSSLSASVGDRVTITCRASQDISNCLNWYQQKPGKTPKLLIYYTSRLHSGVPSRFSGSGSGTDYTFTISSLQPEDIATYFCQQGKTLPYAFGQGTKLEIKR |  |  |  |  |  | 1.35 | 0.00274 | 2.04e+06 | 0.028 |  |  |  |  |  | 
9 | 3D12.16 (antibody, human IgG1, kappa, L234A L235A, V domains shown, Parent anti-IL-1α antibody; also called 3D12.16VH; 3D12.16VL) VH: EIQLVQSGAEVKKPGASVKVSCKASGYTFTNYGMNWVRQAPGQDLERMAWINTYTGESTYADDFKGRFTFTLDTSTSTAYMELSSLRSEDTAVYFCARGIYYYGSSYAMDYWGQGTTVTVSS VL: DIQMTQSPSSLSASVGDRVTITCRASQDISNCLNWYQQKPGKTPKLLIYYTSRLHSGVPSRFSGSGSGTDYTFTISSLQPEDIATYFCQQGKTLPYAFGQGTKLEIKR |  |  |  |  |  | 2.09 | 0.00253 | 1.21e+06 | 0.01 |  |  |  |  |  | 
